Results on one molecule are retold here after PMC11048008.

For this assay, the target named is β2-adrenergic receptor (β2AR) (human) (UniProt P07550).

The molecule AITTGGNTYYANSVKGRFTISRDNA [CDR2-NDP P4 (25-amino-acid nanobody-derived peptide from the CDR2 of Nb71)] displayed a cAMP formation (HitHunter cAMP assay) in β2AR-transfected HEK-293 cells, P4 alone 10^-9 to 10^-4 M, no isoproterenol: EC50 of 210 nM; a cAMP formation (HitHunter cAMP assay) in β2AR-transfected HEK-293 cells, P4 alone 10^-9 to 10^-4 M, no isoproterenol: increase in cAMP as percent of the maximum response to isoproterenol of less than 20%; a decrease of isoproterenol potency in the cAMP assay by 50 µM P4 in β2AR-transfected HEK-293 cells (pair interfered with: agonist-activated β2AR and endogenous Gαs) of less than 20 fold; a reduction of the maximal isoproterenol-induced cAMP level by 50 µM P4 in β2AR-transfected HEK-293 cells (pair interfered with: agonist-activated β2AR and endogenous Gαs) of 40%.
